Legend:
[1] = molecular target: phosphorylated STAT1 dimer (pSTAT1d) (UniProt P42224); test: BLI
[2] = molecular target: GST-tagged TgIST-R2 (Toxoplasma gondii); test: BLI

Q: With “TgIST-R2 peptide after GST removal (domain or fragment)” as the substance, how does the Kd [1] read?
A: Its Kd is 0.33 µM.

Q: “phosphorylated STAT1 dimer (pSTAT1d) (from UniProt P42224 132-713) (domain or fragment)” was tested. Which Kd [2] did it give?
A: Its Kd is 0.022 µM.
